Measured values taken from article PMC12617493 (Science Advances, 2025).
Substitutions are numbered along the chain they refer to. Values belong to the molecule of their own block, whether it stands above or below them.

T1: Osh6(H157A/H158A) (S. cerevisiae, UniProt Q02201 1-448, H157A | H158A)
T1 construct: also called Osh6(HH/AA)
T1 sequence (looked up): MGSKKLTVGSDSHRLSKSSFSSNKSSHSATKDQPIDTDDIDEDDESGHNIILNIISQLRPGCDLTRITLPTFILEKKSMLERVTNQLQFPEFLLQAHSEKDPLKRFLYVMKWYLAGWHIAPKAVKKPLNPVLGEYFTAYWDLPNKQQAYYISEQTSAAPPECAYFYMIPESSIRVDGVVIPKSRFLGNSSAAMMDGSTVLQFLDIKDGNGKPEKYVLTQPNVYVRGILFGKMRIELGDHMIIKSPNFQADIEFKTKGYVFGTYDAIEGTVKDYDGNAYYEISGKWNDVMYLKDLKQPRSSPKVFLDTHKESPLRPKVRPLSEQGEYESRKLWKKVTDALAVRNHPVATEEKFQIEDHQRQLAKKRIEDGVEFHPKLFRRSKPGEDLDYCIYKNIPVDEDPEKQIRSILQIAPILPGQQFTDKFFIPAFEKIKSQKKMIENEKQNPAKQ

B1: Osh6 (natural protein, S. cerevisiae, UniProt Q02201 1-448, looked up)
chain: T1 sequence (looked up) with A157H, A158H
B2: Osh6(HH/AA)-3M (natural protein, S. cerevisiae, UniProt Q02201 1-448, looked up)
chain: T1 sequence (looked up) with E170A, Q417A, T420I
B3: GST-Ist2[590–946] (domain or fragment, S. cerevisiae, UniProt P38250 590-946, looked up)
chain: SSHDDVANGIVPKHVVNVQNPPKQEVFEKIPSPEFNSNNEKELVQRKGSANEKLHQELGEKQPASSANGYEAHAATHANNDPSSLSSASSPSLSSSSSSSKTGVVKAVDNDTAGSAGKKPLATESTEKRNSLVKVPTVGSYGVAGATLPETIPTSKNYYLRFDEDGKSIRDAKSSAESSNATNNNTLGTESKLLPDGDAVDALSRKIDQIPKIAVTGGENNENTQAKDDAATKTPLIKDANIKPVVNAAVNDNQSKVSVATEQTKKTEVSTKNGPSRSISTKETKDSARPSNNNTTTTTTTDATQPHHHHHHHRHRDAGVKNVTNNSKTTESSSSSSAAKEKPKHKKGLLHKLKKKL
notes: also called Ist2 IDR; full-length Ist2 IDR; source: E. coli BL21-GOLD(DE3), purified (Glutathione Sepharose 4B, eluted with glutathione); not shown: GST, N-terminal, kept
B4: CIst2[590–946] (domain or fragment, S. cerevisiae)
chain: CSSHDDVANGIVPKHVVNVQNPPKQEVFEKIPSPEFNSNNEKELVQRKGSANEKLHQELGEKQPASSANGYEAHAATHANNDPSSLSSASSPSLSSSSSSSKTGVVKAVDNDTAGSAGKKPLATESTEKRNSLVKVPTVGSYGVAGATLPETIPTSKNYYLRFDEDGKSIRDAKSSAESSNATNNNTLGTESKLLPDGDAVDALSRKIDQIPKIAVTGGENNENTQAKDDAATKTPLIKDANIKPVVNAAVNDNQSKVSVATEQTKKTEVSTKNGPSRSISTKETKDSARPSNNNTTTTTTTDATQPHHHHHHHRHRDAGVKNVTNNSKTTESSSSSSAAKEKPKHKKGLLHKLKKKL
modifications: N-terminal cysteine covalently attached to MPB-PE of liposomes (in the experiments with MPB-PE–containing liposomes)
notes: extra N-terminal cysteine; With PM-like liposomes it is held by its C-terminal polybasic motif, not covalently; also called Ist2 IDR with an extra N-terminal cysteine; source: E. coli BL21-GOLD(DE3), purified (Glutathione Sepharose 4B, thrombin cleavage, Sephacryl S-200 HR); not shown: GST, N-terminal, cleaved

Tests used:
CIst2[590–946] [1] = target: B4
CIst2[590–946] [2] = target: B4; test: cell-based or functional assay
Osh6(H157A/H158A) = target: T1, Osh6(H157A/H158A); test: pull-down; GST constructs (2.5 μM) immobilised on Glutathione Sepharose 4B beads; Osh6, its mutants, Osh4, ORD^Osh3 or ORD^ORP8 added at 2.5 μM; 50 mM tris pH 7.4, 120 mM NaCl, 1 mM MgCl2, 1% TX-100, 1 mM DTT, 10% glycerol; 25°C, 1 hour; bound fraction by SDS-PAGE; conditions: both partners purified
Osh6 = target: B1; test: liposome flotation assay; Osh6 (0.75 μM) with or without an equivalent amount of CIst2[590–946] and PM-like liposomes POPC/POPS/PI(4,5)P2/NBD-PE (65:30:5:0.1); sucrose gradient, top fraction by SDS-PAGE; conditions: both partners purified

- Ist2-dependent (ER→PM)/(ER→O) NBD-PS transfer rate ratio R (Ist2), three liposome populations, LER and LPM connected by CIst2[590–946], FRET, 30°C (CIst2[590–946] [1]): 1
Molecule: ORD^ORP8 (H514A/H515A) (domain or fragment)

Molecule: B1
- Ist2-dependent (ER→PM)/(ER→O) NBD-PS transfer rate ratio R_(Ist2), three liposome populations, LER and LPM connected by CIst2[590–946], FRET, 30°C (CIst2[590–946] [2]): 7.6

Molecule: B2
- Ist2-dependent (ER→PM)/(ER→O) NBD-PS transfer rate ratio R_(Ist2), three liposome populations, LER and LPM connected by CIst2[590–946], FRET (CIst2[590–946] [2]): ~1

Molecule: B3
- binding result (Osh6(H157A/H158A)): binds

Molecule: B4
- binding result (Osh6): binds
